What was measured:
hMPV126 = biological target: T1, hMPV126 (hMPV B, UniProt Q6WB98 19-102); assay: BLI, no stress
T1 construct: T49I, T150C-R156C, G239A, A459P

hMPV135 = biological target: T2, hMPV135 (hMPV B, UniProt Q6WB98 19-102); assay: BLI, no stress
T2 construct: T49I, S149T, A459P

hMPV122 = biological target: T3, hMPV122 (hMPV B, UniProt Q6WB98 19-102); assay: BLI, no stress
T3 construct: A140C-S149C, T411C-Q434C, A459P

hMPV120 = biological target: T4, hMPV120 (hMPV B, UniProt Q6WB98 19-102); assay: BLI, no stress
T4 construct: A140C-S149C, T411C-Q434C

hMPV134 = biological target: T5, hMPV134 (hMPV B, UniProt Q6WB98 19-102); assay: BLI, no stress
T5 construct: T49I, L141C-A161C, S149T, G239A, T365I, T411C-Q434C, A459P

hMPV128 = biological target: T6, hMPV128 (hMPV B, UniProt Q6WB98 19-102); assay: BLI, no stress
T6 construct: T49I, A140C-S149C, G239A, T411C-Q434C, A459P

hMPV127 = biological target: T7, hMPV127 (hMPV B, UniProt Q6WB98 19-102); assay: BLI, no stress
T7 construct: A140C-S149C, G239A, T411C-Q434C, A459P

hMPV125 = biological target: T8, hMPV125 (hMPV B, UniProt Q6WB98 19-102); assay: BLI, no stress
T8 construct: L141C-A161C, G239A, T411C-Q434C

hMPV136 = biological target: T9, hMPV136 (hMPV B, UniProt Q6WB98 19-102); assay: BLI, no stress
T9 construct: A140C-S149C, A459P

hMPV123 = biological target: T10, hMPV123 (hMPV B, UniProt Q6WB98 19-102); assay: BLI, no stress
T10 construct: A140C-S149C, G239A, T411C-Q434C

hMPV140 = biological target: T11, hMPV140 (hMPV B, UniProt Q6WB98 19-102); assay: BLI, no stress
T11 construct: T49I, L141C-A161C, T411C-Q434C, A459P

hMPV129 = biological target: T12, hMPV129 (hMPV B, UniProt Q6WB98 19-102); assay: BLI, no stress
T12 construct: T49I, A140C-S149C, G239A, T365I, T411C-Q434C, A459P

hMPV132 = biological target: T13, hMPV132 (hMPV B, UniProt Q6WB98 19-102); assay: BLI, no stress
T13 construct: L141C-A161C, S149T, G239A, T411C-Q434C, A459P

hMPV B F WT Control = hMPV B F WT Control (hMPV B, UniProt Q6WB98 19-102); assay: BLI, no stress
hMPV138 = biological target: T14, hMPV138 (hMPV B, UniProt Q6WB98 19-102); assay: BLI, no stress
T14 construct: T49I, A140C-S149C, A459P

hMPV144 = biological target: T15, hMPV144 (hMPV B, UniProt Q6WB98 19-102); assay: BLI, no stress
T15 construct: T49I, L141C-A161C, S149T, A459P

hMPV133 = biological target: T16, hMPV133 (hMPV B, UniProt Q6WB98 19-102); assay: BLI, no stress
T16 construct: T49I, L141C-A161C, S149T, G239A, T411C-Q434C, A459P

PIV1043 = biological target: T17, PIV1043 (PIV1); assay: BLI, no stress;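 also: binding of thermally stressed PIV1 F mutant supernatant to mAb on AHC biosensors for 5 min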
T17 construct: Q92A, G134A
Experimental: (§1) All measurements were conducted at 30° C. temperature in 96-well black plates (Corning, Corning, NY) with a final volume of 240 μL per well at a constant agitation rate of 1000 RPM.
(§2) Conformation integrity of PIV1 F protein mutants were evaluated by a thermal stress experiment. Crude cell culture supernatants were normalized based on the results of the titer quantitation and then incubated for 1 hour at room temperature and two higher temperatures. For the initial testing of PIV1 mutants, the two temperatures were 50° C. and 53° C. […] Anti-Human IgG Fc Capture (AHC) biosensors were first equilibrated in PB for before being dipped into more PB to establish the initial baseline. […] The mAb-bound biosensors were then dipped into the thermal stresses cell culture supernatants for 5 minutes.

PIV1046 = biological target: T18, PIV1046 (PIV1); assay: BLI, no stress;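 also: binding of thermally stressed PIV1 F mutant supernatant to mAb on AHC biosensors for 5 min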
T18 construct: A466V, S473V
Experimental: as §1, §2

PIV1042 = biological target: T19, PIV1042 (PIV1); assay: BLI, no stress;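 also: binding of thermally stressed PIV1 F mutant supernatant to mAb on AHC biosensors for 5 min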
T19 construct: Q92A
Experimental: as §1, §2

PIV1045 = biological target: T20, PIV1045 (PIV1); assay: BLI, no stress;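 also: binding of thermally stressed PIV1 F mutant supernatant to mAb on AHC biosensors for 5 min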
T20 construct: Q92L, G134A
Experimental: as §1, §2

PIV1070 = biological target: T21, PIV1070 (PIV1); assay: BLI, 56C stress
T21 construct: F113G, F114S, A466I, S473I, G134A
Experimental: (§3) The OCTET HTX (Sartorius, Gottingen, Germany) instrument was used to evaluate the expression and conformational integrity for each mutant. All measurements were conducted at 30° C. temperature in 96-well black plates (Corning, Corning, NY) with a final volume of 240 μL per well at a constant agitation rate of 1000 RPM.
as §2

PIV1069 = biological target: T22, PIV1069 (PIV1); assay: BLI, 56C stress
T22 construct: F113G, F114S, A466L, S473L, G134A
Experimental: as §3, §2

[1] = biological target: T23, PIV1 F literature prefusion comparison (PIV1); assay: BLI, 56C stress
T23 construct: F113G, F114S, A466I, S473I (Stewart-Jones et al. 2018)
Experimental: as §3, §2

PIV1031 = biological target: T24, PIV1031 (PIV1); assay: BLI, 50C stress
T24 construct: A466L, S473L
Experimental: as §1, §2

PIV1033 = biological target: T25, PIV1033 (PIV1); assay: BLI, 50C stress
T25 construct: T198A
Experimental: as §1, §2

PIV1026 = biological target: T26, PIV1026 (PIV1); assay: BLI, 50C stress
T26 construct: S473V
Experimental: as §1, §2

PIV1030 = biological target: T27, PIV1030 (PIV1); assay: BLI, 50C stress
T27 construct: A466L, S473A
Experimental: as §1, §2

PIV1036 = biological target: T28, PIV1036 (PIV1); assay: BLI, 50C stress
T28 construct: G134A
Experimental: as §1, §2

PIV1023 = biological target: T29, PIV1023 (PIV1); assay: BLI, 50C stress
T29 construct: A466L
Experimental: as §1, §2

PIV1039 = biological target: T30, PIV1039 (PIV1); assay: BLI, 50C stress
T30 construct: A128P
Experimental: as §1, §2

PIV1024 = biological target: T31, PIV1024 (PIV1); assay: BLI, 50C stress
T31 construct: A466V
Experimental: as §1, §2

PIV1028 = biological target: T32, PIV1028 (PIV1); assay: BLI, 50C stress
T32 construct: A480L
Experimental: as §1, §2

PIV1027 = biological target: T33, PIV1027 (PIV1); assay: BLI, 50C stress
T33 construct: S473L
Experimental: as §1, §2

PIV1014 = biological target: T34, PIV1014 (PIV1); assay: BLI, 50C stress
T34 construct: Q92C-G134C
Experimental: as §1, §2

B1: hMPV-2 mAb (antibody, V domains shown)
VH: QVQLQQSGAEVKKPGASVKVSCKASGYTFTSYGISWVRQAPGQGLEWMGWISGYNGNTNYAQTFQGTFTMTTDTSTSTAYMELRRLRSGDTAVYYCARDRYYASGSYNGMDVWGQGTTVTVSS
VL: QSALTQPPSASGAPGQRVTVSCSGSSSNVGSSSVYWYQQLPGTAPKLLIYRNNQRPSGVPDRFSGSKSGTSASLAISGLRSEDEADYYCAAWDDSLSGWVFGGGTKLTVLG
notes: human IgG1
In the case of B1, the “Response Shift” value (hMPV126) is reported as 0.773 nm, the “Response Shift” value (hMPV135) is reported as 0.73 nm and the “Response Shift” value (hMPV122) is reported as 0.73 nm. The “Response Shift” value (hMPV120) was 0.593 nm, the “Response Shift” value (hMPV134) was 0.718 nm and the “Response Shift” value (hMPV128) was 0.777 nm. For the same binder, the “Response Shift” value (hMPV127) was 0.719 nm, the “Response Shift” value (hMPV125) was 0.847 nm and the “Response Shift” value (hMPV136) was 0.591 nm. The “Response Shift” value (hMPV123) was 0.619 nm, the “Response Shift” value (hMPV140) was 0.731 nm and the “Response Shift” value (hMPV129) was 0.687 nm. For the same binder, the “Response Shift” value (hMPV132) was 0.704 nm, the “Response Shift” value (hMPV B F WT Control) was 0.82 nm and the “Response Shift” value (hMPV138) was 0.681 nm. The “Response Shift” value (hMPV144) was 0.712 nm and the “Response Shift” value (hMPV133) was 0.677 nm.

B2: PIV1-8 mAb (antibody, V domains shown)
VH: QVQLVQSGAEVKKPGSSVKVSCEASGGTFSNYVISWVRQAPGQGLEWMGGIIPVFATAKYAQKFQGRVTIIADQSTNTAYLELSSLRSDDTAVYFCASVDSGGTWWDAFAIWGQGTMVTVSS
VL: QAVVTQPRSVSGSPGQAVTISCTGTSSDVGGYNYVSWYQHHPGKAPKLIIYDVTKRPSGVPDRFSGSKSGNTASLTISGLQTEYEADYYCCSYAGSYTLVFGGGTKLTVLG
notes: human IgG1; also called hPIV1-8 mAb; hPIV1-8
For B2, the “Response Shift” value (PIV1043) was 0.725 nm, the “Response Shift” value (PIV1046) was 0.584 nm and the “Response Shift” value (PIV1042) was 0.192 nm. For the same binder, the “Response Shift” value (PIV1045) was 0.635 nm, the “Response Shift” value (PIV1070) was 0.859 nm and the “Response Shift” value (PIV1069) was 0.819 nm. For the same binder, the “Response Shift” value [1] was 0.458 nm, the “Response Shift” value (PIV1031) was 0.72 nm and the “Response Shift” value (PIV1033) was -0.027 nm. For the same binder, the “Response Shift” value (PIV1026) was -0.022 nm, the “Response Shift” value (PIV1030) was -0.031 nm and the “Response Shift” value (PIV1036) was 0.007 nm. The “Response Shift” value (PIV1023) was 0.018 nm, the “Response Shift” value (PIV1039) was -0.039 nm and the “Response Shift” value (PIV1024) was 0.022 nm. The “Response Shift” value (PIV1028) was -0.018 nm, the “Response Shift” value (PIV1027) was -0.022 nm and the “Response Shift” value (PIV1014) was 0.011 nm.

— patent publication US20240252614A1 (Pfizer, published 2024)
